In FireProtDB (doi:10.1021/bi00179a018):

Conditions: Bacillus amyloliquefaciens, Thermal, DSC, Potassium acetate 50 mM, reversible: yes, whole UniProt chain shown; for unfolding free energy: 25 °C

B1: Ribonuclease wild type, P00648 (protein)
chain: MMKMEGIALKKRLSWISVCLLVLVSAAGMLFSTAAKTETSSHKAHTEAQVINTFDGVADYLQTYHKLPDNYITKSEAQALGWVASKGNLADVAPGKSIGGDIFSNREGKLPGKSGRTWREADINYTSGFRNSDRILYSSDWLIYKTTDHYQTFTKIR
**Q.** Which Tm (pH 2) does the source give for B1 here?
**A.** 24 °C

**Q.** And the “unfolding enthalpy (calorimetric)” value (pH 2)?
**A.** 345 kJ/mol

**Q.** And the Tm (pH 2.5)?
**A.** 31.6 °C

**Q.** And the “unfolding enthalpy (calorimetric)” value (pH 2.5)?
**A.** 395 kJ/mol

**Q.** And the unfolding free energy (pH 3)?
**A.** 18.4 kJ/mol

**Q.** What about the unfolding free energy (pH 3.5) of the same protein?
**A.** 28.4 kJ/mol

**Q.** What about the Tm (pH 3.5) of the same protein?
**A.** 46.7 °C

**Q.** And the “unfolding enthalpy (calorimetric)” value (pH 3.5)?
**A.** 497 kJ/mol

**Q.** And the unfolding free energy (pH 4)?
**A.** 34 kJ/mol

**Q.** What about the Tm (pH 4) of the same protein?
**A.** 50.5 °C

**Q.** What about the “unfolding enthalpy (calorimetric)” value (pH 4) of the same protein?
**A.** 523 kJ/mol

**Q.** And the unfolding free energy (pH 4.5)?
**A.** 37.7 kJ/mol

**Q.** What about the Tm (pH 4.5) of the same protein?
**A.** 53 °C

**Q.** And the “unfolding enthalpy (calorimetric)” value (pH 4.5)?
**A.** 541 kJ/mol

**Q.** What about the unfolding free energy (pH 5) of the same protein?
**A.** 39.1 kJ/mol

**Q.** What about the Tm (pH 5) of the same protein?
**A.** 53.9 °C

**Q.** What about the “unfolding enthalpy (calorimetric)” value (pH 5) of the same protein?
**A.** 546 kJ/mol
